{"source": "paper PMC3999280", "binders": {"B1": {"name": "CD-3 (dsDNA)", "DNA 1": "TCTTCTAATATTCCTTGTATTTTAATTATGTTCGAATTTTATTTT", "DNA 2": "AAAATAAAATTCGAACATAATTAAAATACAAGGAATATTAGAAGA"}}, "molecular_target": "LdtRLas ('Candidatus Liberibacter asiaticus', UniProt A0ABN4AZS1 1-171)", "assay": "competition", "conditions": "protein: recombinant; tags: N-terminal His6 removed by TEV; chain copies: 2; label: none; blunt"}
{"binder": "B1", "values": [{"measurement": "binding result", "value": "binds"}]}
